# From article PMC7435202 (Nature Communications, 2020)
# Target: the molecule itself
# Test: cryo-EM structure; native full-length gB with 93k Fab fragments added in molar excess, overnight at +4 °C; Amphipol 8-35, TBS pH7.4, Superose-6; single particle, C3 symmetry imposed
protein,measurement,value
"native, full-length VZV glycoprotein B (gB) purified from VZV-infected MeWo cells (natural protein, UniProt Q4JR05 72-931, looked up, Varicella-zoster virus glycoprotein B, 931 amino acids, ORF31, strain pOka; cleaved by furin: both uncleaved (130 kDa) and cleaved (65 kDa) gB are present; also called native gB; full-length gB) VSPSSFYESLQVEPTQSEDITRSAHLGDGDEIREAIHKSQDAETKPTFYVCPPPTGSTIVRLEPPRTCPDYHLGKNFTEGIAVVYKENIAAYKFKATVYYKDVIVSTAWAGSSYTQITNRYADRVPIPVSEITDTIDKFGKCSSKATYVRNNHKVEAFNEDKNPQDMPLIASKYNSVGSKAWHTTNDTYMVAGTPGTYRTGTSVNCIIEEVEARSIFPYDSFGLSTGDIIYMSPFFGLRDGAYREHSNYAMDRFHQFEGYRQRDLDTRALLEPAARNFLVTPHLTVGWNWKPKRTEVCSLVKWREVEDVVRDEYAHNFRFTMKTLSTTFISETNEFNLNQIHLSQCVKEEARAIINRIYTTRYNSSHVRTGDIQTYLARGGFVVVFQPLLSNSLARLYLQELVRENTNHSPQKHPTRNTRSRRSVPVELRANRTITTTSSVEFAMLQFTYDHIQEHVNEMLARISSSWCQLQNRERALWSGLFPINPSALASTILDQRVKARILGDVISVSNCPELGSDTRIILQNSMRVSGSTTRCYSRPLISIVSLNGSGTVEGQLGTDNELIMSRDLLEPCVANHKRYFLFGHHYVYYEDYRYVREIAVHDVGMISTYVDLNLTLLKDREFMPLQVYTRDELRDTGLLDYSEIQRRNQMHSLRFYDIDKVVQYDSGTAIMQGMAQFFQGLGTAGQAVGHVVLGATGALLSTVHGFTTFLSNPFGALAVGLLVLAGLVAAFFAYRYVLKLKTSPMKALYPLTTKGLKQLPEGMDPFAEKPNATDTPIEEIGDSQNTEPSVNSGFDPDKFREAQEMIKYMTLVSAAERQESKARKKNKTSALLTSRLTGLALRNRRGYSRVRTENVTGV",stoichiometry N,3
